The target of this experiment is T1, human TNFR2 (human, UniProt P20333 23-461).
T1 construct: expressed on the surface of CHO cells; also called HuTNFR2; TNFRSF1B
T1 sequence: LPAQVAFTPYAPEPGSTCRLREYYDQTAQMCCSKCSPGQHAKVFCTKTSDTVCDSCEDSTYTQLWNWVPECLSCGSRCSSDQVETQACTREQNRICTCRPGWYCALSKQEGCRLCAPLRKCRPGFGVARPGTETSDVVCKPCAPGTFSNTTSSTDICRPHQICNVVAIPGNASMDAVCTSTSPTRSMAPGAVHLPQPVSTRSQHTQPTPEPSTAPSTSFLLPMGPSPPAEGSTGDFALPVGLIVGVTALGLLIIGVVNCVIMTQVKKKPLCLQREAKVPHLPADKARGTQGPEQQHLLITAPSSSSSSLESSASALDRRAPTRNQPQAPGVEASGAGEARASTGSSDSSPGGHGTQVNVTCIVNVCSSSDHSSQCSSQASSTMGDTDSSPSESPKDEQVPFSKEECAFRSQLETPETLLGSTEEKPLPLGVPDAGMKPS
Description: binding to human TNFR2 CHO cells.

Where a chain is given by its changes, count along the chain named.

B1: IgG 1945 (antibody, name in Kabat numbering, V domains shown)
VH: QVQLVQSGAEVKKPGASVKVSCKVSGFSFPSSGVDWVRQAPGQGLEWLGVTRGEGSTHYNQKFQGRVTITKDTSKSTVYMELSSLRSEDTAVYYCASGEWDEGFVYWGQGTLVTVSS
VL: DIQLTQSPSFLSASVGDRVTITCKASQNVGTAVAWYQQKPGKAPKLLIYAASTLQSGVPSRFSGSGSGTEFTLTISSLQPEDFATYYCLQYSSYPLTFGGGTKVEIKR
notes: IgG
As for B1, the binding result was “no binding”.

B2: IgG 1950 (antibody, name in Kabat numbering, V domains shown)
VH: B1 VH with R52W, E54V, W100H
VL: B1 VL
notes: IgG
Take B2: the binding result is listed as “no binding”.

B3: IgG 1965 (antibody, name in Kabat numbering, V domains shown)
VH: B1 VH with R52L, E54H, W100S, D101T
VL: B1 VL with L89Q
notes: IgG
Consider B3, for which the binding result is reported as “no binding”.

B4: IgG 1953 (antibody, name in Kabat numbering, V domains shown)
VH: B1 VH with R52K, E54Q, W100S, D101T
VL: B1 VL with L89Q
notes: IgG
Take B4: the binding result was “no binding”.

B5: IgG 1949 (antibody, name in Kabat numbering, V domains shown)
VH: B1 VH with R52W, E54V, W100S, D101T
VL: B1 VL
notes: IgG
Consider B5, for which the binding result is “no binding”.

B6: IgG 1941 (antibody, name in Kabat numbering, V domains shown)
VH: B1 VH with R52W, E54V, W100H
VL: B1 VL with Y91K
notes: IgG
B6: the binding result is on record as “no binding”.

B7: IgG 1955 (antibody, name in Kabat numbering, V domains shown)
VH: B1 VH with R52K, E54Q, W100R
VL: B1 VL with L89Q
notes: IgG
Take B7: the binding result is listed as “no binding”.

B8: IgG 1957 (antibody, name in Kabat numbering, V domains shown)
VH: B1 VH with W100S, D101T
VL: B1 VL with L89Q
notes: IgG
For B8, the binding result is on record as “no binding”.

B9: IgG 1954 (antibody, name in Kabat numbering, V domains shown)
VH: B1 VH with R52K, E54Q, W100H
VL: B1 VL with L89Q
notes: IgG
Turning to B9, the binding result is recorded as “no binding”.

B10: IgG 1963 (antibody, name in Kabat numbering, V domains shown)
VH: B1 VH with R52F, G53Q, W100R
VL: B1 VL with L89Q
notes: IgG
Turning to B10, the binding result was “no binding”.

B11: IgG 1914 (antibody, name in Kabat numbering, V domains shown)
VH: B1 VH with R52W, E54V, W100H
VL: B1 VL with L89Q
notes: IgG
Turning to B11, the binding result is “no binding”.

B12: IgG 1970 (antibody, name in Kabat numbering, V domains shown)
VH: B1 VH with R52H, E54S, W100H
VL: B1 VL with L89Q
notes: IgG
In the case of B12, the binding result is on record as “no binding”.

B13: IgG 1947 (antibody, name in Kabat numbering, V domains shown)
VH: B1 VH with R52L, E54H
VL: B1 VL
notes: IgG
Turning to B13, the binding result was “no binding”.

B14: IgG 1943 (antibody, name in Kabat numbering, V domains shown)
VH: B1 VH with R52W, E54V, W100Q
VL: B1 VL with Y91K
notes: IgG
For B14, the binding result was “no binding”.

B15: IgG 1944 (antibody, name in Kabat numbering, V domains shown)
VH: B1 VH with R52K, E54Q
VL: B1 VL
notes: IgG
In the case of B15, the binding result is “no binding”.

B16: IgG 1911 (antibody, name in Kabat numbering, V domains shown)
VH: B1 VH with R52L, E54H
VL: B1 VL with L89Q
notes: IgG
Take B16: the binding result was “no binding”.

B17: IgG 1936 (antibody, name in Kabat numbering, V domains shown)
VH: B1 VH
VL: B1 VL with Y91K
notes: IgG
As for B17, the binding result is “no binding”.

B18: IgG 1909 (antibody, name in Kabat numbering, V domains shown)
VH: B1 VH
VL: B1 VL with L89Q
notes: IgG
For B18, the binding result is “no binding”.

B19: IgG 1952 (antibody, name in Kabat numbering, V domains shown)
VH: B1 VH with R52W, E54V, W100Q
VL: B1 VL
notes: IgG
In the case of B19, the binding result is “no binding”.

B20: IgG 1961 (antibody, name in Kabat numbering, V domains shown)
VH: B1 VH with R52F, G53Q, W100S, D101T
VL: B1 VL with L89Q
notes: IgG
Consider B20, for which the binding result is on record as “no binding”.

B21: IgG 1946 (antibody, name in Kabat numbering, V domains shown)
VH: B1 VH with R52F, G53Q
VL: B1 VL
notes: IgG
Consider B21, for which the binding result is given as “no binding”.

B22: IgG 1942 (antibody, name in Kabat numbering, V domains shown)
VH: B1 VH with R52W, E54V, W100R
VL: B1 VL with Y91K
notes: IgG
B22: the binding result is “no binding”.

B23: IgG 1948 (antibody, name in Kabat numbering, V domains shown)
VH: B1 VH with R52H, E54S
VL: B1 VL
notes: IgG
For B23, the binding result was “no binding”.

B24: IgG 1910 (antibody, name in Kabat numbering, V domains shown)
VH: B1 VH with R52F, G53Q
VL: B1 VL with L89Q
notes: IgG
For the molecule B24, the binding result is “no binding”.

B25: IgG 1916 (antibody, name in Kabat numbering, V domains shown)
VH: B1 VH with R52W, E54V, W100Q
VL: B1 VL with L89Q
notes: IgG
As for B25, the binding result is “no binding”.

B26: IgG 1967 (antibody, name in Kabat numbering, V domains shown)
VH: B1 VH with R52L, E54H, W100R
VL: B1 VL with L89Q
notes: IgG
As for B26, the binding result is recorded as “no binding”.

B27: IgG 1908 (antibody, name in Kabat numbering, V domains shown)
VH: B1 VH with R52K, E54Q
VL: B1 VL with L89Q
notes: IgG
Take B27: the binding result is “no binding”.

B28: IgG 1937 (antibody, name in Kabat numbering, V domains shown)
VH: B1 VH with R52F, G53Q
VL: B1 VL with Y91K
notes: IgG
On to B28, for which the binding result is listed as “no binding”.

B29: IgG 1951 (antibody, name in Kabat numbering, V domains shown)
VH: B1 VH with R52W, E54V, W100R
VL: B1 VL
notes: IgG
For B29, the binding result is recorded as “no binding”.

B30: IgG 1962 (antibody, name in Kabat numbering, V domains shown)
VH: B1 VH with R52F, G53Q, W100H
VL: B1 VL with L89Q
notes: IgG
Consider B30, for which the binding result is on record as “no binding”.

B31: IgG 1956 (antibody, name in Kabat numbering, V domains shown)
VH: B1 VH with R52K, E54Q, W100Q
VL: B1 VL with L89Q
notes: IgG
For B31, the binding result is given as “no binding”.

B32: IgG 1966 (antibody, name in Kabat numbering, V domains shown)
VH: B1 VH with R52L, E54H, W100H
VL: B1 VL with L89Q
notes: IgG
In the case of B32, the binding result was “no binding”.

B33: IgG 1969 (antibody, name in Kabat numbering, V domains shown)
VH: B1 VH with R52H, E54S, W100S, D101T
VL: B1 VL with L89Q
notes: IgG
As for B33, the binding result is reported as “no binding”.

B34: IgG 1915 (antibody, name in Kabat numbering, V domains shown)
VH: B1 VH with R52W, E54V, W100R
VL: B1 VL with L89Q
notes: IgG
Regarding B34, the binding result was “no binding”.

B35: IgG 1959 (antibody, name in Kabat numbering, V domains shown)
VH: B1 VH with W100R
VL: B1 VL with L89Q
notes: IgG
For the molecule B35, the binding result is “no binding”.

B36: IgG 1958 (antibody, name in Kabat numbering, V domains shown)
VH: B1 VH with W100H
VL: B1 VL with L89Q
notes: IgG
B36: the binding result is given as “no binding”.

B37: IgG 1913 (antibody, name in Kabat numbering, V domains shown)
VH: B1 VH with R52W, E54V, W100S, D101T
VL: B1 VL with L89Q
notes: IgG
As for B37, the binding result is “no binding”.

B38: IgG 1940 (antibody, name in Kabat numbering, V domains shown)
VH: B1 VH with R52W, E54V, W100S, D101T
VL: B1 VL with Y91K
notes: IgG
Turning to B38, the binding result is listed as “no binding”.

B39: IgG 1912 (antibody, name in Kabat numbering, V domains shown)
VH: B1 VH with R52H, E54S
VL: B1 VL with L89Q
notes: IgG
Take B39: the binding result is on record as “no binding”.

B40: IgG 1938 (antibody, name in Kabat numbering, V domains shown)
VH: B1 VH with R52L, E54H
VL: B1 VL with Y91K
notes: IgG
In the case of B40, the binding result is recorded as “no binding”.

The values above are taken from patent publication US20230406951A1 (Pfizer, published 2023).
